For this test, the target named is proliferating cell nuclear antigen (PCNA), Saccharomyces cerevisiae (Saccharomyces cerevisiae) (UniProt P15873). Kind of test: single-molecule correlative force and fluorescence microscopy.
Chain of UniProt P15873 (P15873 whole entry): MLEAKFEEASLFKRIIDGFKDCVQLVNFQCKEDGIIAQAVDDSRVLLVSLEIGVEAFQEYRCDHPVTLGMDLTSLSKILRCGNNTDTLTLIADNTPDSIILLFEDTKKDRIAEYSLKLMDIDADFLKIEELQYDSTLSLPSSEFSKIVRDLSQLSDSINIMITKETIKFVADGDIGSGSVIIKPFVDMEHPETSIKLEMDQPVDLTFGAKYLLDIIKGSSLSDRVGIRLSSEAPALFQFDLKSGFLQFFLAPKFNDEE

On to “replication factor C (RFC), Saccharomyces cerevisiae, full-length (from UniProt P38630 1-861) (complex)”, for which the tethers with RFC along the path of fill-in together with PCNA (of 14 tethers) is 9.

These data come from PMC12363810.
